# Patent US20210246166A1 (Bayer, published 2021)
# Bridge positions count the residues as written; N and C are the ends. Square brackets hold non-standard residues; d marks the D form. Ends that are not written are not given here. * marks the point of attachment. X5 = Tetrahydropyranyl‑4‑acetic acid, O=C(CC1CCOCC1)*; Oic = O=C(O)[C@@H]1C[C@@H]2CCCC[C@@H]2N1; tBuAla = CC(C)(C)C[C@H](N)C(=O)O; Aad = N[C@@H](CCCC(=O)O)C(=O)O; Pen = CC(C)(S)[C@H](N)C(=O)O; Tranexamic = tranexamic acid; NMeC = CN[C@@H](CS)C(=O)O; NPhGly = O=C(O)CNc1ccccc1; Abu = CC[C@H](N)C(=O)O; PEG2 = NCCOCCOCCC(=O)O; βAla = NCCC(=O)O; Sar = CNCC(=O)O
# T1: recombinant human MASP1 active protease (amino acids 297-699, C-terminal His Tag) (human, UniProt P48740 297-699)
# T1 sequence: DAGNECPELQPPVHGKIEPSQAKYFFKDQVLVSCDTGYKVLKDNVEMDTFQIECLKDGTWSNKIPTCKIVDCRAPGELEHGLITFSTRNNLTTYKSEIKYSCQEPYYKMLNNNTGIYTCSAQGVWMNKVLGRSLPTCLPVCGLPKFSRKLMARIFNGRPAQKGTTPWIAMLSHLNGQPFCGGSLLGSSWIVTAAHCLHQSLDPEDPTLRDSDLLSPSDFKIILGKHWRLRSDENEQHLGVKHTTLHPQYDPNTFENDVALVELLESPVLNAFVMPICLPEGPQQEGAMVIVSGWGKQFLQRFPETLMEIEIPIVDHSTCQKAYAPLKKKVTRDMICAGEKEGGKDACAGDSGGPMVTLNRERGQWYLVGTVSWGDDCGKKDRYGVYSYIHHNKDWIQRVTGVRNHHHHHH
# B1: Example 317: ((N-Me)G)-IC+SRSLPPIC+ID-NH2 (peptide)
# peptide: [Sar]ICSRSLPPICID-NH2
# modifications: disulfide 3-11; N-terminus assumed
# SMILES: CC[C@H](C)[C@H](NC(=O)CNC)C(=O)N[C@H]1CSSC[C@@H](C(=O)N[C@H](C(=O)N[C@@H](CC(=O)O)C(N)=O)[C@@H](C)CC)NC(=O)[C@H]([C@@H](C)CC)NC(=O)[C@@H]2CCCN2C(=O)[C@@H]2CCCN2C(=O)[C@H](CC(C)C)NC(=O)[C@H](CO)NC(=O)[C@H](CCCNC(=N)N)NC(=O)[C@H](CO)NC1=O
# B2: Example 311: ((N-Ph)G)-IC+SRS-((tBu)A)-PPI-(Pen)+IP-NH2 (peptide)
# peptide: [NPhGly]ICSRS[tBuAla]PPI[Pen]IP-NH2
# modifications: disulfide 3-11; N-terminus assumed
# SMILES: CC[C@H](C)[C@H](NC(=O)CNc1ccccc1)C(=O)N[C@H]1CSSC(C)(C)[C@@H](C(=O)N[C@H](C(=O)N2CCC[C@H]2C(N)=O)[C@@H](C)CC)NC(=O)[C@H]([C@@H](C)CC)NC(=O)[C@@H]2CCCN2C(=O)[C@@H]2CCCN2C(=O)[C@H](CC(C)(C)C)NC(=O)[C@H](CO)NC(=O)[C@H](CCCNC(=N)N)NC(=O)[C@H](CO)NC1=O
# B3: Example 316: IC+SRS-((tBu)A)-PPI-(Pen)+IP-NH2 (peptide)
# peptide: ICSRS[tBuAla]PPI[Pen]IP-NH2
# modifications: disulfide 2-10; N-terminus assumed
# SMILES: CC[C@H](C)[C@H](N)C(=O)N[C@H]1CSSC(C)(C)[C@@H](C(=O)N[C@H](C(=O)N2CCC[C@H]2C(N)=O)[C@@H](C)CC)NC(=O)[C@H]([C@@H](C)CC)NC(=O)[C@@H]2CCCN2C(=O)[C@@H]2CCCN2C(=O)[C@H](CC(C)(C)C)NC(=O)[C@H](CO)NC(=O)[C@H](CCCNC(=N)N)NC(=O)[C@H](CO)NC1=O
# B4: Example 305: (Tetrahydropyranyl-4-acetic acid)-IC+SRS-((tBu)A)-PPI-((N-Me)C)+I-NH2 (peptide)
# peptide: X5-ICSRS[tBuAla]PPI[NMeC]I-NH2
# modifications: disulfide 2-10
# SMILES: CC[C@H](C)[C@H](NC(=O)[C@@H]1CSSC[C@H](NC(=O)[C@@H](NC(=O)CC2CCOCC2)[C@@H](C)CC)C(=O)N[C@@H](CO)C(=O)N[C@@H](CCCNC(=N)N)C(=O)N[C@@H](CO)C(=O)N[C@@H](CC(C)(C)C)C(=O)N2CCC[C@H]2C(=O)N2CCC[C@H]2C(=O)N[C@@H]([C@@H](C)CC)C(=O)N1C)C(N)=O
# B5: Example 306: (beta-A)-IC+SRSLPPIC+IPD-OH (peptide)
# peptide: [βAla]ICSRSLPPICIPD-OH
# modifications: disulfide 3-11; N-terminus assumed
# SMILES: CC[C@H](C)[C@H](NC(=O)CCN)C(=O)N[C@H]1CSSC[C@@H](C(=O)N[C@H](C(=O)N2CCC[C@H]2C(=O)N[C@@H](CC(=O)O)C(=O)O)[C@@H](C)CC)NC(=O)[C@H]([C@@H](C)CC)NC(=O)[C@@H]2CCCN2C(=O)[C@@H]2CCCN2C(=O)[C@H](CC(C)C)NC(=O)[C@H](CO)NC(=O)[C@H](CCCNC(=N)N)NC(=O)[C@H](CO)NC1=O
# B6: Example 314: AIC+SRS-(AAD)-PP-I-((N-Me)C)+IPD-NH2 (peptide)
# peptide: AICSRS[Aad]PPI[NMeC]IPD-NH2
# modifications: disulfide 3-11; N-terminus assumed
# SMILES: CC[C@H](C)[C@H](NC(=O)[C@H](C)N)C(=O)N[C@H]1CSSC[C@@H](C(=O)N[C@H](C(=O)N2CCC[C@H]2C(=O)N[C@@H](CC(=O)O)C(N)=O)[C@@H](C)CC)N(C)C(=O)[C@H]([C@@H](C)CC)NC(=O)[C@@H]2CCCN2C(=O)[C@@H]2CCCN2C(=O)[C@H](CCCC(=O)O)NC(=O)[C@H](CO)NC(=O)[C@H](CCCNC(=N)N)NC(=O)[C@H](CO)NC1=O
# B7: Example 318: ((N-Me)G)-IC+SRSLPPIC+IPD-OH (HCl- Salt) (peptide)
# peptide: [Sar]ICSRSLPPICIPD-OH
# modifications: disulfide 3-11; also: HCl salt
# B8: Example 320: (PEG1(10 atoms))-AIC+SRS-((tBu)A)-PPI-(Pen)+IPD-NH2 (peptide)
# peptide: [PEG2]AICSRS[tBuAla]PPI[Pen]IPD-NH2
# modifications: disulfide 4-12; N-terminus assumed
# SMILES: CC[C@H](C)[C@H](NC(=O)[C@H](C)NC(=O)CCOCCOCCN)C(=O)N[C@H]1CSSC(C)(C)[C@@H](C(=O)N[C@H](C(=O)N2CCC[C@H]2C(=O)N[C@@H](CC(=O)O)C(N)=O)[C@@H](C)CC)NC(=O)[C@H]([C@@H](C)CC)NC(=O)[C@@H]2CCCN2C(=O)[C@@H]2CCCN2C(=O)[C@H](CC(C)(C)C)NC(=O)[C@H](CO)NC(=O)[C@H](CCCNC(=N)N)NC(=O)[C@H](CO)NC1=O
# B9: Example 313: ((N-Me)G)-IC+SRSLPPIC+I-(Abu)-D-OH (peptide)
# peptide: [Sar]ICSRSLPPICI[Abu]D-OH
# modifications: disulfide 3-11; N-terminus assumed
# SMILES: CC[C@H](NC(=O)[C@@H](NC(=O)[C@@H]1CSSC[C@H](NC(=O)[C@@H](NC(=O)CNC)[C@@H](C)CC)C(=O)N[C@@H](CO)C(=O)N[C@@H](CCCNC(=N)N)C(=O)N[C@@H](CO)C(=O)N[C@@H](CC(C)C)C(=O)N2CCC[C@H]2C(=O)N2CCC[C@H]2C(=O)N[C@@H]([C@@H](C)CC)C(=O)N1)[C@@H](C)CC)C(=O)N[C@@H](CC(=O)O)C(=O)O
# B10: Example 319: (Tranexamic)-IC+SRS-((tBu)A)-PPI-((N-Me)C)+IPD-NH2 (peptide)
# peptide: [Tranexamic]ICSRS[tBuAla]PPI[NMeC]IPD-NH2
# modifications: disulfide 3-11
# B11: Example 304: (Tetrahydro-2H-pyran-3-ylacetic acid)-IC+SRSLP-(Oic)-I-(Pen)+IP-NH2 (peptide)
# peptide: {Tetrahydro‑2H‑pyran‑3‑ylacetic acid}-ICSRSLP[Oic]I[Pen]IP-NH2
# modifications: disulfide 2-10
# B12: Example 310: ((N-Me)G)-I-(Pen)+SRS-((tBu)A)-PPI-C+IP-NH2 (peptide)
# peptide: [Sar]I[Pen]SRS[tBuAla]PPICIP-NH2
# modifications: disulfide 3-11; N-terminus assumed
# SMILES: CC[C@H](C)[C@H](NC(=O)CNC)C(=O)N[C@@H]1C(=O)N[C@@H](CO)C(=O)N[C@@H](CCCNC(=N)N)C(=O)N[C@@H](CO)C(=O)N[C@@H](CC(C)(C)C)C(=O)N2CCC[C@H]2C(=O)N2CCC[C@H]2C(=O)N[C@@H]([C@@H](C)CC)C(=O)N[C@H](C(=O)N[C@H](C(=O)N2CCC[C@H]2C(N)=O)[C@@H](C)CC)CSSC1(C)C
# B13: Example 312: ((N-Me)G)-IC+SRSLPPIC+IPd-OH (peptide)
# peptide: [Sar]ICSRSLPPICIP[dD]-OH
# modifications: disulfide 3-11; N-terminus assumed
# SMILES: CC[C@H](C)[C@H](NC(=O)CNC)C(=O)N[C@H]1CSSC[C@@H](C(=O)N[C@H](C(=O)N2CCC[C@H]2C(=O)N[C@H](CC(=O)O)C(=O)O)[C@@H](C)CC)NC(=O)[C@H]([C@@H](C)CC)NC(=O)[C@@H]2CCCN2C(=O)[C@@H]2CCCN2C(=O)[C@H](CC(C)C)NC(=O)[C@H](CO)NC(=O)[C@H](CCCNC(=N)N)NC(=O)[C@H](CO)NC1=O
# Target: recombinant human MASP2 active protease (amino acids 297-686, C-terminal His Tag) (human, UniProt O00187 297-686)
# Assay: cell-based or functional assay
# Sequence of recombinant human MASP2 active protease (amino acids 297-686, C-terminal His Tag) (O00187 other isoform, or with tags, fused parts or gaps limits assumed): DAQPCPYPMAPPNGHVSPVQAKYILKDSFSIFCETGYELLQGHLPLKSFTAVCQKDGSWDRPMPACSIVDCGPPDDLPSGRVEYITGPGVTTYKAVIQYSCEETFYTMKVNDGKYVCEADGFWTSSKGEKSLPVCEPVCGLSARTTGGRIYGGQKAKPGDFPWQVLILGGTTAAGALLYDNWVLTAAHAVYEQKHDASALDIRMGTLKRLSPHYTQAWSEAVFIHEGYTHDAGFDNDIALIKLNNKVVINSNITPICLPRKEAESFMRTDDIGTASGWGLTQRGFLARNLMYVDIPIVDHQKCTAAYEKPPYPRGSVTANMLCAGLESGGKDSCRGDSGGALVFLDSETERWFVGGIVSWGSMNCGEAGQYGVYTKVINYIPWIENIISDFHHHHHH
row,human MASP2 IC50 [nM],Binder
1,210,B1
2,49,B2
3,660,B3
4,9.4,B4
5,450,B5
6,260,B6
7,610,B7
8,190,B8
9,250,B9
10,18,B10
11,27,B11
12,3000,B12
13,530,B13

# Target: T1, recombinant human MASP1 active protease …
# Assay: cell-based or functional assay
row,human MASP1 IC50 [nM],Binder
1,22,B1
2,20,B2
3,21,B3
4,19,B4
5,20,B5
6,21,B6
7,22,B7
8,22,B8
9,21,B9
10,22,B10
11,19,B11
12,20,B12
13,21,B13
